A short description of this series: soluble fraction after stress (log2 fold change); higher = more stays soluble; pooled small domains, quantitative proteomics. The following applies: stress: 75 degC.
Regarding “HMLAVSVDKDGKVYIQDSETAVDAVTAKLRAISGNNSEIRIFVRGDADVNYGRIMEIMGVINAAGFRKVAL”, the “soluble fraction (log2)” value was -0.111.
“HMLDEIAGQKVRVLEEINNSEGTGKVMYRGVEWMARSVDDAVMAKDSIVTVQSISGVKLMVT”: the “soluble fraction (log2)” value is -0.184.
In the case of “HMLDEKAVRQYLLNTLENSEIKMDRQAIDLFLRLTDLDLSKMMRELQKILLYGQEQEVITVKEIEQ”, the “soluble fraction (log2)” value is -0.779.
For “HMLDGFEVGMTVMKKSGTEIGFTGWPSFADKDELPIIERIDTSDSTLLLKFKDMSWWIKASLVEPS”, the “soluble fraction (log2)” value was -3.55.
The value for “HMLDLPEISARIMEVFETKDRATISELSKLTGTNINTIKKHLSSLVENNYLIKHGKTRGAWYTKST” was -0.126; that for “HMLDLVSIGKRIKAERQKNGLTQEALAERIEVSAHYVYELERGLKAMSVPILLRMSEVLHTSTDYLLF” was -3.34; that for “HMLDNHPQSKKIRALWLEMAAAGVVRDSSEQALALWVKRETGISALRWLSNEQASSVIEKLKKWQRRAAG” was -1.47.
The value for “HMLDPKVFVGKAGINEGIAKLLLQAFDKADLVKVRFTAERDVMETQMQELARLTGSEVIGNVGRTATF” was -0.0412; that for “HMLEAMDSDEAAKVIEQIVNERADFVRSKGMGAIGPLMGPVMGALRGKVDGKQANELLTAAIKKLL” was 0.334.
On to “HMLEASVYTAEKSGDRLDAFLAEQAGITRSYAQKLIEGGQVTLGGVVPKKNYKLSAGEQVELILPEN”, for which the “soluble fraction (log2)” value was 0.0466.
To “HMLEKVLDNHIHKLRLQHKISQQELADAIGVSRKTISTVETGRFTPSVVIALKIAAHFSVSVEQVFTL” belongs -1.14.
The value for “HMLEPEVLDLIGQVKSVHHFSVTQSHQLEKLVRHAHTLGFEIAELKSLLASSPNAKSLLSSLDQKLEPLRM” was -1.86; that for “HMLEQEQFESKLLKAINNINETQRIAFLMHRIDGKKYAEIASELNISVKAVEKRIHLALIELKKEIENF” was -0.747.
The value for “HMLEQISDINILSGYAKEVIAENPKTVSDYLSGKAAAFQALVGQVMKKTGGRGNPVIIQEILKRLIHKK” was -0.0597.
Regarding “HMLERKPVLVASRDLPALAVIGKDDLSVELLRTAPVGSYDRPEALLGKRVWVAVPAGSILSAATLEP”, the “soluble fraction (log2)” value was -0.366.
With “HMLERPLKLKSHYVSTIYEKVAVQYSEGEEKKSVMGTLIEVNQDTIVLDDRGTIIEIPFKSITRAKTVF”, the “soluble fraction (log2)” value is -3.6.
To “HMLETLVYPNPTTDKILLSSPVDYHLFSLKGELVLEGRGSSIEVSQLSKGVYFLNTKTQTFKIIK” belongs -0.62.
Turning to “HMLGARSLNEAVARNLPQILAKYQLIHIAGKNGFNPELQGRGYVQYEYVDTELKDLMALADIVVSR”, the “soluble fraction (log2)” value is -1.52.
To “HMLGERIKQIRKQKKMTQTDVATGIITKSMLSMIENGKATPSLPALQAIARRLQVTVEELML” belongs -2.55; to “HMLGFELVGIRGNNPESTIIILERDDYRLVEQGQNINSSVIFSHIDGSRAYFFDGQTYTFLDI”, -2.78.
The value for “HMLGITEGSLVRVIRSPNFGKIGTVAELPAELRMMESETMVRIAIVEIEGTNFEIPRSNLEVLET” was -1.6; that for “HMLGKEVVRAYNISYAIDDKGSLQGDLTAALTGLIPLSKPPVLDQRNRSLYVTATPEQHKDVAALLAKL” was -0.238.
The value for “HMLGSGSKEQQLVILNNILERQVQAFNLQGGQEYPMVTLKNFYNTLSKMIENAGLKNVENYFVNPDVGKQM” was -0.392.
Take “HMLHMKAALGELMSIPGMRSELAGTLFDRGYTSLAQLRAATLDDLERVNGLERADARRIHDFLRKS”: the “soluble fraction (log2)” value was -0.251.
In the case of “HMLHQSLVVNAASGRVTVSLDIVPDEDNPYAVLRATDDSDEPLAQVRVAPSFKLNRASALAWIESQFARP”, the “soluble fraction (log2)” value is -2.34.
For the sequence “HMLHSEDATVVRQAIPLLERHVDAATVAVARRNLAQLEQFGRYPRRNQALGRISNPAENAYLRAER”, the “soluble fraction (log2)” value is 0.0695.
To “HMLIDQYPYSIIYRLIPHGRSNAVPAAQIVGLTKLDERSIRIYVEAMRREGHIIASSSKGYYFPASIEE” belongs -3.2.
The value for “HMLIGLNETESLVLDALIANPMRIDQVSAMLKKDVATTLKFLGGLSVRGLVETLFGGRFAPTKIALHARS” was 0.0549.
To “HMLIIMNSDATKEQVDHVTSRVREAGFKDHIMPGAGKVAIGVTGTGDYDQTKLHLEILPGVFKIMRITK” belongs -0.816.
Consider “HMLIPADETEAKVLSVLSREPLHVDEIRNQAGLPIEKISATLALMELKGMVRQVGGMNYVSV”, for which the “soluble fraction (log2)” value is -0.044.
In the case of “HMLKDKLSDKDFDFYKNKIQIQLQGNPTELKELVRRFSSTEEQQILKTIDYMLDNGFLRIDEDNMIYWK”, the “soluble fraction (log2)” value is -0.0419.
“HMLKDQSIAQLEKNLDDLKGLMRKMFGSSDVPKITKMISDIESSLANFNQSKANKLIVQTTNYISSKL”: the “soluble fraction (log2)” value was -0.664.
For “HMLKEDSAYELGLRIFDQALNDYGTSFIDLKEDEYKKVLSIYGYSNPRQLIINIGLGNVIPHLLARDITE”, the “soluble fraction (log2)” value is -1.34.
Consider “HMLKEGIKEKINQLQVYADKNDNIIWYDRVVDILSDKDDSVTDEMIEAAIRTLEEAGISVERKQ”, for which the “soluble fraction (log2)” value was found to be 0.0727.
The value for “HMLKEGQYSPNHFHWHKMEDIINRGGGTLLIRVYNSLPDEEIDRESDVTVHMDGVTRTVPAGTQLRLE” was -0.124; that for “HMLKETGVITASVLNVREDIGTSSNIVAQLKKGMEVNILESRAIAGSETWYRIDAGSIKGWIFGDYI” was -3.37.
The value for “HMLKFGLSQRELQILALLPTDEPLSILAKSLFISESTLKTHLTHIYRKLGVKNRLQAINVARKAGLLK” was -1.59; that for “HMLKHSKQRDAIEQFLATRYDHPTAETVYMNLREEYPKLSLATVYRNLSLLAELGNIQKIPTGNGPDRFDG” was -0.343; that for “HMLKIAENIYQRRKEKNITQEELADFMMVTKASVSKWETGQSYPDILLLPKLATFFNVTVDELIGYEPQ” was -2.72.
The value for “HMLKIVRSREEVESRLYTIYGNVKGRRLYNFYLSLIIDGLDIVKARTSKNVYYTNIRNLKNAGIDFSQKIN” was -2.28.
Regarding “HMLKPKDLHLGDSVRVLSLNLKGTVSSLPDTKGFLFVQMGIMRSKLHISDLQLIDEPVITAP”, the “soluble fraction (log2)” value is -2.23.
The value for “HMLLFSVADIVKRSKRILSFKTDAELAAYFGVSRSTLSNWIARNSIDFPLLLSKMKDVDYTWLILGKGTPG” was -3.97; that for “HMLLLHINQMGVTEFSQLELNHVRSWLANLQIKGAARSSITRRVVSVRAFTYWGAKNGWLASDIGRDLVAP” was -0.459; that for “HMLLRVGGLVKDGSVRTDNDLGIKFIIEDNLAEVSVLYNGILPDLFREGQGVIAEGKFIDNIFIANEIVA” was -0.682.
To “HMLLSHTAQREGELLTFLRGELALSSGLVKRLKWQNAFFLDGAPVHTNARVKPGQEITVRIEE” belongs -1.59; to “HMLLTEETLPQLKQIVDEFPYFQIARMLYLKNLAVLNDIRFSVELKKMSIYVPDRRKLFTLIEGE”, 0.044.
Take “HMLLTLPEDIITMVRQGTLSAGHARVLAGLESDEMKMTLARQTITNEWSVRQLENAVALMRKS”: the “soluble fraction (log2)” value was -0.906.
Regarding “HMLLTPLEETRLVIEEIVIPQKLTIDLLPRSSAIRKLQHELITHYQLRGTSVGNEPNRRLRIYP”, the “soluble fraction (log2)” value is -0.121.
For “HMLMNADVLVKYQEDHWIVISEKASQASDTFDKKEQAVERAKEIAKNKNSSVKVYKQDGTLQDTFDYS”, the “soluble fraction (log2)” value was found to be 0.351.
The value for “HMLMSDEENAEFTKLYRQLVFKLHPDLNPNQTKDEENLWHKVQMAYKGGDLEEMRSLAIILDAQ” was 0.0885; that for “HMLMTGSLQTKHGKYYVVVRIPDGLGNTKAKWINTGIPTDGNNKRKAQQRRIEILTELEENKD” was -2.47; that for “HMLMYAQDEKEEASNNIPYRLLHMSFTKEQKAELQRAMDVRVPKDIILSYFYPDTPVARMMEIRRQYESA” was -0.814.
Regarding “HMLNDKLQTLFSLFPAVDKDLKKKGVTRQILWEQYKRNHPDGVGRSQFNYYYAQWKDQVNPT”, the “soluble fraction (log2)” value is -1.02.
For the sequence “HMLNDMYAVMEIRGQGGELIAKLINQDGSPFYVKKGTTLQSGHVIDEITTTYVRAEKAGAKDYLYF”, the “soluble fraction (log2)” value is -0.939.
The value for “HMLNDTGAIRAAVEEVLAANEKSVNEYKGGKTQAFQYLIGQSMRALRGKAPAQEVTKLLKELLG” was -0.564.
To “HMLNQIGVSQKEFDQIHTAIKIALKTSSLTPTGITEKLPKFPPEKTADILRWMADNKEVLLNSEEKYELKT” belongs -0.297; to “HMLPAGAAAPLEDGSAPEGYTVKGNADSGLYHEPDGRWYDATVAEFWFKTAADAEAAGFRKAGS”, 0.149.
As for “HMLPDGEAFVKVNTSLNIRTGPWGQIVGWFHNNDKVKIIGRDGDWYKISHNGQTRYIHSRYVSSSR”, the “soluble fraction (log2)” value is -1.2.
“HMLPDHAPITMRQLAMLHVAKNKLDLTDEDYRSLLLLYGGVESSKQLNQEGLRRVLDRFKELGFEP”: the “soluble fraction (log2)” value was -0.45.
To “HMLPDLLNGRVIPSPEKVIRARLNRGVWELLVQWVGRAPSDATWENLLEFKSAYPSVQLEDALF” belongs -1.97.
Regarding “HMLPDLQKAIDTFLYEVDSRINTSFEELIDKLNSKEEAVAFFLALLEAVRWGFIKAEQESNSINIKK”, the “soluble fraction (log2)” value is -0.898.
The value for “HMLPDSQLMKEATAWFMRQAADDFSGAERRRLDAWRAQSPAHARAYHQVQALWNAPELQQAAAR” was -0.113.
The value for “HMLPEGIENGDVLTRTDALDYRKWLVTGNQKRIFASTASFYGENFNYSEVKAVSDRVLDAIPDGEPV” was -0.0413.
To “HMLPFGHTRLEDGTIQEIPEQIALARKVAEMYKAGFPVMQISIKTEGLLTPRQIYGLMNHWGVKR” belongs -1.3; to “HMLPIKLDLEIGENVRVVSGPLENFVGSVVSFDTDQQKVKLVVEMFGRKTPVELDFIEVQKLR”, -2.24; to “HMLPIMDRLITAGISINTAKKWVDKFGDKRIKQNLAYSLAKQKEGKVKTNFVGYLAKAIEEDWGSGWE”, -1.5.
Take “HMLPKAERREQLMAVARSVFAEQGYHTTSMEIIAETAGVSKPLLYQHFPSKLDLYLALLDAGID”: the “soluble fraction (log2)” value was -1.8.
The value for “HMLPKILVMDGKVNKNALTTLGKDEEWVKKVLRNHNIHSIKDVLLALYDTKGKFQYQLYDDYEK” was -0.248; that for “HMLPKNITNTIDHWIQKFPQGKQRSAIIAALHAVQHHNKGFLTNDLLNQVADYIDVPKMNVYEVATFYSM” was 0.169; that for “HMLPLIEVPAVTGKYLTKAKSALKDAGLDTGDIKRVEHEEHGENYVLKQDPPAGTKVPFGTTVSLTVVAP” was 0.427.
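Further: 20 min heating vs room temperature control held 20 min.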
